# Results from patent US20240336661A1, “PEPTIDES DERIVED FROM RUMINOCOCCUS TORQUES” (University of Copenhagen, priority 2021, published 2024).
# B1: RUCILP2: 87 amino acid irisin-like polypeptide cleaved from the Ruminococcus torques FNDC5-like protein RUMTOR_00181; recombinant, 6-His-tagged from E. coli (protein)
# chain: APVDVKVSEITETSAKASWKNAADGKEAAGYNVYVDGVKLNKELLTEASCGLTNLKAETTYFVEVTAVDAAGNESVKSEKVTFKTLK
# modifications: 6-His tag; Ruminococcus torques
# notes: 87 amino acid irisin-like polypeptide cleaved from the Ruminococcus torques FNDC5-like protein RUMTOR_00181; recombinant, 6-His-tagged from E. coli
# Experiments:
# [1] = Targeted proteomics (PRM) assay for RUCILP2 in human plasma; conditions: measured from 6 individuals
# Description: FIG. 25. Representative chromatogram showing the presence of RUCILP2 in fasting human plasma. Parallel reaction monitoring (PRM) elution profile for y-ions for the unique tryptic RUCILP2 peptide (EAAGYNVYVDGVK) found in human plasma samples. Top panel is PRM trace for the fragmental ions (box a) of light peptide found in human plasma sample, bottom panel is PRM trace for the fragmental ions (box b) of 10.0 femtomole of heavy isotope labelled (Lys ^13C6, […]) synthetic peptide (internal standard, IS) spiked into fractionated human plasma samples. Retention times for each peptide are labeled on the x axis, and y axis represents the relative intensity for each fragmental ion peak. One milliliter of human plasma sample was depleted of albumin and immunoglobulin G following deglycosylation. Deglycosylated plasma was resolved by SDS-PAGE and molecular mass regions corresponding to completely deglycosylated RUCILP2 (10-15 kDa) was excised and subsequently digested in-gel overnight before LC-MS/MS detection. Based on comparative analysis on relative intensities of fragmental ions found in processed human plasma and fragmental ions found in plasma spiked with heavy isotope labelled internal standards, we estimate the inter-individual concentrations of RUCILP2 in human plasma vary between 10 and 100 pg/ml. […]
# [2] = biological target: αV/β5 integrin receptor complex (Homo sapiens, UniProt P06756+P18084); assay: Co-immunoprecipitation on a nickel ion column; format: binding; conditions: 100 nM Fc-fused RUCILP2, 5 nM His-tag αV/β5 integrin
# Protocol: FIG. 6. Co-immunoprecipitation on a nickel ion column to validate binding of recombinant RUCILP2 to the αV/β5 integrin receptor complex. 100 nM Fc-fused RUCILP2 was incubated with 5 nM of His-tag αV/β5 integrin receptor, followed by immunoprecipitation using nickel-nitrilotriacetic acid (Ni-NTA) agarose. Precipitated integrins and co-precipitated irisin were analyzed by immuno-blot analysis. Elution indicates a mixture of disassociated integrin and RUCILP2 from the integrin-RUCILP2 complex. Before loading, samples were a mixture of co-incubation of RUCILP2 and integrin receptor.
# • Step 1: Binding of integrin and RUCILP2. One hundred nM FC-tagged RUCILP2 was incubated with 5 nM of the indicated his-tag integrin avb5 in a final volume of 500ul in 1.5 ml Protein LoBind Tubes (Eppendorf, 022431081) for 5/30/90 minutes at room temperature under rotation. • Step 2: After rotation, Ni spin column (ThermoFisher Scientific, R901-01) was applied to immunoprecipitate integrins. In details, Add 500 μl of FC-RUCILP2-integrin-His protein complex to the column. Mix end-over-end at 4° C. for 15 minutes. […] Precipitated integrin was detected by immuno-blot analysis against his tag. Co-precipitated RUCILP2 was detected by immunoblot analysis against FC-tag. […]
# Chain of αV/β5 integrin receptor complex (P06756 31-992 limits assumed): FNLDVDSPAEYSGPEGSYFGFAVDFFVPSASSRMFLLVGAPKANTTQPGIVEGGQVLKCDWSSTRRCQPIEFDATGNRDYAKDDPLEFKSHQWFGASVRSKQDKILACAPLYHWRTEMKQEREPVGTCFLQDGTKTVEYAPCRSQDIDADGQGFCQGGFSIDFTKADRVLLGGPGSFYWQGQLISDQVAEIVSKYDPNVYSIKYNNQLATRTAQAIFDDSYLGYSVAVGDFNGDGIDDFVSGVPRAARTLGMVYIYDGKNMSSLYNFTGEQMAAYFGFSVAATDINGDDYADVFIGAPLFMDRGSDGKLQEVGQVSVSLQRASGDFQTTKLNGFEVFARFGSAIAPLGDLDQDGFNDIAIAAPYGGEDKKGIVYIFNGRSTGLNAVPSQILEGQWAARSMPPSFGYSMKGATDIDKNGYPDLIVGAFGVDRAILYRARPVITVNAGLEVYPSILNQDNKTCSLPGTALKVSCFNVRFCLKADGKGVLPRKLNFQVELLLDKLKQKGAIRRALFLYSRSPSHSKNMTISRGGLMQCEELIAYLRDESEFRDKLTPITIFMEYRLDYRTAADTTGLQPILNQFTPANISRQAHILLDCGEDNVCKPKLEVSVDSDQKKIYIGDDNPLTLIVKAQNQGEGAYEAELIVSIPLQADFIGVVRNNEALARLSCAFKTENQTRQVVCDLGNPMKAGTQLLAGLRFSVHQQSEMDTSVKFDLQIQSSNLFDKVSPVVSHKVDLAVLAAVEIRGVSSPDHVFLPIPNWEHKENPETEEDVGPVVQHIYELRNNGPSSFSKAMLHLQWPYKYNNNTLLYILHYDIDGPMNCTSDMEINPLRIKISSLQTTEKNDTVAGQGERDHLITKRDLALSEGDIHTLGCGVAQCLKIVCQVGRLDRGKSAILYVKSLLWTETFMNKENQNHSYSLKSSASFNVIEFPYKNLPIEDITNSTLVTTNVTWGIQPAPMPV
# Chain of αV/β5 integrin receptor complex (P18084 24-719 limits assumed): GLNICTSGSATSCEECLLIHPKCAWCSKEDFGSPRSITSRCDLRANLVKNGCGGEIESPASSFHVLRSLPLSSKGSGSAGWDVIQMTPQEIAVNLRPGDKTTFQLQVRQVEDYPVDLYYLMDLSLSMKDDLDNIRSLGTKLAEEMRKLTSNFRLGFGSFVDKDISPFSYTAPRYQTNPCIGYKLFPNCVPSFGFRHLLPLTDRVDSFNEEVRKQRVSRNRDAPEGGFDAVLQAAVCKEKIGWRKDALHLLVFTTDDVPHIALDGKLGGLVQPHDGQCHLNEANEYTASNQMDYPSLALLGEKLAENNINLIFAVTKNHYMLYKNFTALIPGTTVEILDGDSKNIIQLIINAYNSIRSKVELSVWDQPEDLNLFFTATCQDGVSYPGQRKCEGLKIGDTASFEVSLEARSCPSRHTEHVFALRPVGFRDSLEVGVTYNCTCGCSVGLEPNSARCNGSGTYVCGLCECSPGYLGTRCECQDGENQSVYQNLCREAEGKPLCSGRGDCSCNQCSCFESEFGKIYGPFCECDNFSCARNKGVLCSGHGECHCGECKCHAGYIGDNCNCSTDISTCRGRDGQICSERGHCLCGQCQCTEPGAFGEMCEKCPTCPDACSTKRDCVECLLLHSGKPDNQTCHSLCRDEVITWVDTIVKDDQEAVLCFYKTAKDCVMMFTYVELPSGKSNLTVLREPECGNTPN
molecule,measurement,setting,value
B1,inter-individual concentration interval of RUCILP2 in human plasma,[1],10 to 100 µg/mL
same,binding to αV/β5 integrin receptor (co-immunoprecipitation),[2],direct interaction
